Consider 1 molecule from patent publication US20250092426, “CAS ENDONUCLEASES AND RELATED METHODS” (Flagship Pioneering Innovations VII, LLC, published 2025).

The data set has as its target T1, CasEnd-16 (synthetic construct).
T1 chain: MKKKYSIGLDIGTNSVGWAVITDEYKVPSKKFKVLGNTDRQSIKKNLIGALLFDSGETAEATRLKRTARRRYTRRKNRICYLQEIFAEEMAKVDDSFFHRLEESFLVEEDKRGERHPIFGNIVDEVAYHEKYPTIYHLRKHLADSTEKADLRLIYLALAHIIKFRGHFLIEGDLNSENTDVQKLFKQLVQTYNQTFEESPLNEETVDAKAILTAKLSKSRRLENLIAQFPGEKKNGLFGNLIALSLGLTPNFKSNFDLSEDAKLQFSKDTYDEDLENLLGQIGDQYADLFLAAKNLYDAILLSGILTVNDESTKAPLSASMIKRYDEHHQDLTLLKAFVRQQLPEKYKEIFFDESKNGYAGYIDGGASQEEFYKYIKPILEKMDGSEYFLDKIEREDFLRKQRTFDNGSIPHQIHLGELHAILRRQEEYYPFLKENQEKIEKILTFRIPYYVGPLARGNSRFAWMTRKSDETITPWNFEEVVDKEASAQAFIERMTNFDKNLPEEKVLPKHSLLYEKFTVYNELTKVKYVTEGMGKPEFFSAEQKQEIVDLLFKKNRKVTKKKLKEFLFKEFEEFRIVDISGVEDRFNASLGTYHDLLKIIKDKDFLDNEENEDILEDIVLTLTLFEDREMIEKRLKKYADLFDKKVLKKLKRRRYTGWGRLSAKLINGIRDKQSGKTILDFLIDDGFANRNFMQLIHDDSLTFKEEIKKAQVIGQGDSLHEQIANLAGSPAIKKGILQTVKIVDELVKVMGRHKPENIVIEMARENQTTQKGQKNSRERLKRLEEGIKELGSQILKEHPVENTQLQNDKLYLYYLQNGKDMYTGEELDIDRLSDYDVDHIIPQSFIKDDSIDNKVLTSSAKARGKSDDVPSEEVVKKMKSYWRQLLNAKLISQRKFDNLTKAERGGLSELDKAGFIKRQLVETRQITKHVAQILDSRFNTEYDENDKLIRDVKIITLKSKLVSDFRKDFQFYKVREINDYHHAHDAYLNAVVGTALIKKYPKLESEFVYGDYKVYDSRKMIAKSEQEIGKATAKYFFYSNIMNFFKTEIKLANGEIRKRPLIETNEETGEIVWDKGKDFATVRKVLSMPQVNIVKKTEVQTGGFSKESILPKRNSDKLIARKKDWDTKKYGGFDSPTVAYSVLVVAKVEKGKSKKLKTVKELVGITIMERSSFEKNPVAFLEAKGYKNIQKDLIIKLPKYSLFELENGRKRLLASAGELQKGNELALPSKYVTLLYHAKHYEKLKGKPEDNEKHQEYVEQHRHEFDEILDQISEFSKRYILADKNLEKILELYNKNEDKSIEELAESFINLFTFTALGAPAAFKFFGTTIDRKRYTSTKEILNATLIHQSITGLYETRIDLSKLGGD
Nature of the data set: cell_activity; +++; HEK293T; PAM not stated. The procedure, abridged:
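BFP-to-GFP conversion via reverse transcriptase fusion with each Cas endonuclease plus template RNA: 200 ng of each plasmid nucleofected into 250,000 BFP-expressing HEK293T cells (program DS-150). Percent GFP+ cells by flow cytometry at day 4 measured editing.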

B1: BFP-to-GFP template RNA ; BFP reporter protospacer (ssRNA ; dsDNA)
RNA: GCCGAAGCACUGCACGCCGUGUUUUAGAGCUAGAAAUAGCAAGUUAAAAUAAGGCUAGUCCGUUAUCAACUUGAAAAAGUGGCACCGAGUCGGUGCACCCUGACGUACGGCGUGCAGUGCUU
DNA 1: GCCGAAGCACTGCACGCCGT
DNA 2: ACGGCGTGCAGTGCTTCGGC
B1: the activity was ≥ 100 % of reference.
